# Measurements reported in patent US20130266605A1, “PEPTIDE INHIBITORS OF CD40L SIGNALING AND USES THEREFOR” (PHYLOGICA LIMITED, priority 2010, published 2013).
# “Also recorded” adds a separate entry of the source. Where two headings read alike, the source gives them in different places. Positions of bridges follow the written chain, without caps; N, C: chain ends. Residues, ends and D or L forms follow the SMILES beside them. Chains are numbered I, II in the order given. No end group written: not given here. PEG = not defined here
# T1: CD40L-CD40 interaction (Homo sapiens, UniProt P29965)
# T1 sequence (P29965 113-261 limits assumed): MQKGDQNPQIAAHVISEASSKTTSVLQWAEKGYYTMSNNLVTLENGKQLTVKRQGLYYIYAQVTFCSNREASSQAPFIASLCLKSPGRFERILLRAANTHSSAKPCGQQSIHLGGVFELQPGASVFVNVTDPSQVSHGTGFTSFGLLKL
# T2: CD40 ligand (UniProt P29965 108-261, limits assumed)
# T2 construct: Used immobilised, soluble, or biotinylated on streptavidin beads; also called CD154; soluble CD40L
# T2 sequence (looked up): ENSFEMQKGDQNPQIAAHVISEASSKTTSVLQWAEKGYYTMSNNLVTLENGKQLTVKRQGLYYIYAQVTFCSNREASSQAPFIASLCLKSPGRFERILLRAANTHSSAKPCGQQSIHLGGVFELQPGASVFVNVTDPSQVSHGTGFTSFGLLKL
# T3: CD40 ligand, P29965
# T3 chain: T2 sequence (looked up)
# B1: M7_189S (peptide)
# peptide: LLLFFFSPPFSIFSFSLTTLS
# notes: Cys-to-Ser derivative; also called M1-189Sa
# B2: CD40L M1_9s (peptide)
# peptide: PPRYNLFFLFRFYSSFRRDYLYF
# notes: Cys-to-Ser derivative; also called M1-9Sa
# B3: CD40L M8_747 (peptide)
# peptide: LAEHAVWSLKCFPDWEWYNINIFGTDDPNHFWVECDGHGKILFPGYPEGYYENHFLHSFELED
# modifications: not checked
# B4: Cys_M1_6S-Cys_M1_9S heterodimer (peptide)
# peptide 1: CHPFSIKNVFSIWNFFSVY
# peptide 2: CPPRYNLFFLFRFYSSFRRDYLYF
# modifications: disulfide I:1-II:1
# notes: also called 6-9 dimer
# B5: Cys_M1_6S homodimer (peptide)
# peptide: CHPFSIKNVFSIWNFFSVY
# modifications: also: homodimer: disulfide between the N-terminal cysteines of two chains
# notes: also called 6-6 dimer; homodimer of the Phylomer peptide M1-6
# B6: CD40L D1_0014 (peptide)
# peptide: PFTWRPTIFWIIQLIVYMRHFGGGGSRSELLRENICRYVSLFDHPLQRNTPLDELRFVIFDTETSGFDLVKDRILSIR
# notes: Single-chain fusion of two peptide monomers; also called heterodimeric peptide of CD40L M1-206 and a second monomer with tetra-glycine spacer
# Key:
# TNFα-induced cytoxicity = assay: TNFα-induced cytotoxicity control assay; assay type: cell-based; settings: in words, specificity control
# Protocol: (§1) As a control in these assays, LPS-induced expression of CD86 mediated by the Toll-like receptors TLR 2/4, and TNFα-induced cytoxicity, were also assayed to exclude effects mediated by ligands other than CD40L.
# CD40L-CD40 interaction = biological target: T1, CD40L-CD40 interaction; assay: Chemiluminescent proximity assay (Alphascreen); assay type: binding; settings: Alphascreen proximity assay; monomeric and dimeric peptides (Table 5); read-out: EC50
# Protocol: In one example, the Alphascreen assay (PerkinElmer) was employed according to the manufacturer's instructions.
# Homodimers and heterodimers were also assayed by chemiluminescent proximity assay for their ability to inhibit CD40L-CD40 interaction.
# [1] = system: LPS-induced expression of CD86 mediated by the Toll-like receptors TLR 2/4; assay: LPS-induced CD86 expression control assay; assay type: cell-based; settings: in words; specificity control; listed as M1—18S
# Protocol: as §1
# [2] = biological target: CD40L-induced CD86 expression on primary B-cells (UniProt P29965); assay: Inhibition of CD40L-induced CD86 expression on primary B-cells (FACS); settings: in words
# Protocol: In one example, the ability of a peptide, analog or derivative of the invention to inhibit or reduce or delay expression of CD86 on primary B-cells was determined in the presence and absence of the peptides, analogs and derivatives of the invention. In particular, CD86 expression was determined by FACS.
# CD40 ligand [3] = biological target: T2, CD40 ligand; assay: Alphascreen, unmodified peptide, inhibition of CD40L/CD40-Fc
# CD40 ligand [4] = biological target: T2, CD40 ligand; assay: phage-displayed peptide on bound CD40L, soluble CD40L as competitor
# CD40 ligand [5] = biological target: T2, CD40 ligand; assay: Octet Red label-free (BLI)
# CD40 ligand [6] = biological target: T2, CD40 ligand; assay: Alphascreen proximity assay, inhibition of CD40L-CD40
# CD40 ligand [7] = biological target: T2, CD40 ligand; assay: cell-based or functional assay
# CD40 ligand [8] = biological target: T2, CD40 ligand; assay: Alphascreen proximity assay (1hr), peptide titrated against 0.75nM CD40L; blocked interaction: CD40L with CD40; signal falls from about 27500 to about 5000 units
# CD40 ligand [9] = biological target: T2, CD40 ligand; assay: Alphascreen proximity assay (1hr), peptide titrated against 0.75nM CD40L; blocked interaction: CD40L with CD40; signal falls from about 21000 to about 3000 units
# CD40 ligand [10] = biological target: T2, CD40 ligand; assay: Alphascreen proximity assay, peptide titrated against 0.75nM CD40L; blocked interaction: CD40L with CD40
# CD40 ligand [11] = biological target: T2, CD40 ligand; assay: Alphascreen proximity assay, peptide titrated; blocked interaction: CD40L with CD40
# CD40 ligand, P29965 [12] = biological target: T3, CD40 ligand, P29965; assay: Octet Red label-free (BLI)
# CD40 ligand, P29965 [13] = biological target: T3, CD40 ligand, P29965; assay: Alphascreen, unmodified peptide, inhibition of CD40L/CD40-Fc
# CD40 ligand [14] = biological target: T2, CD40 ligand; assay: Alphascreen, PEGylated peptide, inhibition of CD40L/CD40-Fc
# CD40 ligand [15] = biological target: T2, CD40 ligand; assay: Octet Red label-free (BLI); remark: listed apart in the source
# CD40 ligand [16] = biological target: T2, CD40 ligand; assay: Alphascreen proximity assay, peptide dimer titrated against 0.75nM CD40L; blocked interaction: CD40L with CD40; signal falls from about 23000 to about 4000 units
# CD40 ligand [17] = biological target: T2, CD40 ligand; assay: cell-based or functional assay; remark: listed apart in the source
# CD40 ligand [18] = biological target: T2, CD40 ligand; assay: Alphascreen proximity assay, peptide dimer titrated against 0.75nM CD40L; blocked interaction: CD40L with CD40; signal falls from about 12500 to about 4000 units
# CD40 ligand [19] = biological target: T2, CD40 ligand; assay: from the KD values of Table 2 (Octet Red)
# Sequence of CD40L-induced CD86 expression on primary B-cells (P29965 whole entry): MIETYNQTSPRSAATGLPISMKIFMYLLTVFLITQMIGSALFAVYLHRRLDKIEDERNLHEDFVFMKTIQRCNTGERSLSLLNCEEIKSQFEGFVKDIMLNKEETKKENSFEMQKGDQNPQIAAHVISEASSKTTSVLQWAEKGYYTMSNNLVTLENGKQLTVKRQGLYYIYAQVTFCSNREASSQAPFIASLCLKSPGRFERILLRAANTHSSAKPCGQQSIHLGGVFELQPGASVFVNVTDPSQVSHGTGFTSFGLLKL
# Sequence of CD40L-induced CD86 expression on primary B-cells (P25942 21-277 partner): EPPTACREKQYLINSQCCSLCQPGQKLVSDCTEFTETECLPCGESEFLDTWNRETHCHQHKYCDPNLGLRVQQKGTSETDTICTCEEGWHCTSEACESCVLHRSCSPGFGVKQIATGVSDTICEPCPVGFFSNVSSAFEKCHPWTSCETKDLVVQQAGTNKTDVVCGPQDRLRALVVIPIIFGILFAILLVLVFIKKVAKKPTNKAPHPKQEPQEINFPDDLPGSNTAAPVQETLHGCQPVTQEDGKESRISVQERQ
molecule,measurement,setting,value
CC[C@H](C)[C@H](NC(=O)[C@H](CO)NC(=O)[C@H](Cc1ccccc1)NC(=O)[C@@H](NC(=O)[C@H](CC(N)=O)NC(=O)[C@H](CCCCN)NC(=O)[C@@H](NC(=O)[C@H](CO)NC(=O)[C@H](Cc1ccccc1)NC(=O)[C@@H]1CCCN1C(=O)[C@@H](N)Cc1c[nH]cn1)[C@@H](C)CC)C(C)C)C(=O)N[C@@H](Cc1c[nH]c2ccccc12)C(=O)N[C@@H](CC(N)=O)C(=O)N[C@@H](Cc1ccccc1)C(=O)N[C@@H](Cc1ccccc1)C(=O)N[C@@H](CO)C(=O)N[C@H](C(=O)N[C@@H](Cc1ccc(O)cc1)C(=O)O)C(C)C [CD40L M1_6s] (H-HPFSIKNVFSIWNFFSVY-OH; N-terminus and C-terminus assumed),significant inhibition of TNFα-induced cell death / cytoxicity,TNFα-induced cytoxicity,lack of inhibition and none
same,EC50,CD40L-CD40 interaction,0.122 to 0.323 nM
CC[C@H](C)[C@H](NC(=O)[C@H](CO)NC(=O)[C@H](Cc1c[nH]c2ccccc12)NC(=O)[C@H](CCC(N)=O)NC(=O)[C@@H](NC(=O)[C@@H]1CCCN1C(=O)[C@H](Cc1ccccc1)NC(=O)[C@H](Cc1ccccc1)NC(=O)[C@H](Cc1c[nH]c2ccccc12)NC(=O)CNC(=O)[C@H](Cc1ccc(O)cc1)NC(=O)[C@H](CCCCN)NC(=O)[C@H](CC(C)C)NC(=O)[C@@H](NC(=O)[C@H](Cc1c[nH]cn1)NC(=O)[C@H](CO)NC(=O)[C@H](CCCNC(=N)N)NC(=O)[C@H](Cc1ccc(O)cc1)NC(=O)[C@@H]1CCCN1C(=O)[C@@H](NC(=O)[C@H](Cc1ccccc1)NC(=O)[C@@H]1CCCN1C(=O)[C@@H](N)CC(C)C)C(C)C)C(C)C)C(C)C)C(=O)N[C@@H](Cc1ccccc1)C(=O)N[C@@H](C)C(=O)N[C@H](C(=O)N[C@@H](CC(C)C)C(=O)N1CCC[C@H]1C(=O)N[C@@H](Cc1ccccc1)C(=O)N[C@@H](CCC(N)=O)C(=O)N[C@@H](Cc1ccc(O)cc1)C(=O)N[C@@H](CC(C)C)C(=O)N[C@@H](Cc1c[nH]cn1)C(=O)N[C@@H](CCCNC(=N)N)C(=O)N[C@@H](CO)C(=O)N[C@@H](CCCNC(=N)N)C(=O)O)C(C)C [CD40L M1_18s] (H-LPFVPYRSHVLKYGWFFPVQWSIFAVLPFQYLHRSR-OH; N-terminus and C-terminus assumed),inhibition of LPS-induced CD86 expression,[1],lack of concentration-dependent inhibition; also recorded: no significant inhibition
same,significant inhibition of TNFα-induced cell death / cytoxicity,TNFα-induced cytoxicity; listed as M1—18*S,lack of inhibition
same,significant inhibition of TNFα-induced cell death / cytoxicity,TNFα-induced cytoxicity; listed as M1—18S,none
same,inhibition of CD40L-induced CD86 expression on primary B-cells,[2],concentration-dependent inhibition
HPFSIKNVFCIWNFFSVY (Base peptide) [CD40L M1_6],EC50,CD40 ligand [3],440 nM
same,IC50,CD40 ligand [4],16.3 nM
same,Kd,CD40 ligand [5],24 nM
B1,EC50,CD40 ligand [6],0.176 nM
same,"EC50, inhibition of CD40L-induced CD86 expression on primary B-cells",CD40 ligand [7],176 nM
same,EC50,CD40 ligand [8],176 nM
B2,EC50,CD40 ligand [6],0.564 nM
same,EC50,CD40 ligand [9],564 nM
same,"EC50, inhibition of CD40L-induced CD86 expression on primary B-cells",CD40 ligand [7],564 nM
PPRYNLFFLFRFYCSFRRDYLYF (Base peptide) [CD40L M1_9],EC50,CD40 ligand [3],370 nM
same,IC50,CD40 ligand [4],81.1 nM
same,Kd,CD40 ligand [5],8 nM
HPFSIKNVFSIWNFFSVY (Cys-to-Ser derivative) [CD40L M1_6s],IC50 (read off the curve),CD40 ligand [10],~300 nM
same,"EC50, inhibition of CD40L-induced CD86 expression on primary B-cells",CD40 ligand [7],323 nM
same,IC50 (read off the curve),CD40 ligand [11],~300 nM
B3,Kd,"CD40 ligand, P29965 [12]",8 nM
same,EC50,"CD40 ligand, P29965 [13]",197 nM
{PEG}-SIQYHWRYSRFKYYFQLIWVYYCHV (reading uncertain) [PEGylated CD40L M1_82],EC50,CD40 ligand [14],120 nM
PRWVRNRFYSLFVPSGVQRGGIHLWFSNWVR (Cys-to-Ser derivative) [CD40L M1_50s],Kd,CD40 ligand [15],600 nM
B4,EC50,CD40 ligand [6],0.03 nM
same,"EC50, inhibition of CD40L-induced CD86 expression on primary B-cells",CD40 ligand [7],35 nM
same,EC50,CD40 ligand [16],30 nM
DAAGREFFQIAGLFSFRHHWWQA [CD40L M1_30s],Kd,CD40 ligand [15],400 nM
LPFVPYRSHVLKYGWFFPVQWSIFAVLPFQYLHRSR [CD40L M1_18s],"EC50, inhibition of CD40L-induced CD86 expression on primary B-cells",CD40 ligand [7],743 nM
same,"EC50, inhibition of CD40L-induced expression of CD86 on primary B-cells (FACS)",CD40 ligand [17],~743 nM
LPFVPYRSHVLKYGWFFPVQWSIFAVLPFQYLHRCR (Base peptide) [CD40L M1_18],EC50,CD40 ligand [3],350 nM
same,"IC50, inhibition of CD40L-induced expression of CD86 on primary B-cells",CD40 ligand [17],< 500 nM
same,IC50,CD40 ligand [4],25 nM
same,Kd,CD40 ligand [5],2.3 nM
RIESLEGEMWLINPFNGETLDEHTLEVWLK (modifications not checked) [CD40L M8_748],Kd,"CD40 ligand, P29965 [12]",5 nM
same,EC50,"CD40 ligand, P29965 [13]",184 nM
B5,EC50,CD40 ligand [6],0.0489 nM
same,"EC50, inhibition of CD40L-induced CD86 expression on primary B-cells",CD40 ligand [7],48.9 nM
same,EC50,CD40 ligand [18],48.9 nM
{PEG}-PFTWRPTIFWIIQLIVYMRHF (reading uncertain) [PEGylated CD40L M7_206],EC50,CD40 ligand [14],88 nM
CHPFSIKNVFSIWNFFSVY [Cys_M1_6S],IC50 (read off the curve),CD40 ligand [10],~300 nM
same,EC50,CD40 ligand [6],0.265 nM
same,"EC50, inhibition of CD40L-induced CD86 expression on primary B-cells",CD40 ligand [7],306 nM
same,IC50 (read off the curve),CD40 ligand [11],~300 nM
B6,fold higher affinity than the base monomeric peptide CD40L M1-206,CD40 ligand [19],6 fold
